Patent US5753435
Blank lines part the entries; values can stand above or below the binder they belong to.

Tests used:
[1] = target: δ-(L-α-aminoadipyl)-L-cysteinyl-D-valine (ACV) synthetase purified from Acremonium chrysogenum C10 (ATCC 48272) (Acremonium chrysogenum) (UniProt P25464)
[2] = target: T1, low molecular weight (LMW) polypeptide component of the oxido reductase system of Penicillium chrysogenum (Penicillium chrysogenum)
T1 sequence: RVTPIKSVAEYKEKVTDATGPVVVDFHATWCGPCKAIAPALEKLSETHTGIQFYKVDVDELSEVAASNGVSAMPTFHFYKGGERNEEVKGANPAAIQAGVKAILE

[3] = target: thioredoxin obtained from Spirulina platensis (Spirulina platensis)
[4] = target: T1, low molecular weight (LMW) polypeptide component of the oxido reductase system of Penicillium chrysogenum (Penicillium chrysogenum); remark: listed apart in the source
[5] = target: T1, low molecular weight (LMW) polypeptide component of the oxido reductase system of Penicillium chrysogenum (Penicillium chrysogenum); remark: listed apart in the source
[6] = target: thioredoxin obtained from Spirulina platensis (Spirulina platensis); remark: listed apart in the source

ACVS activity: dpm of labelled ACV produced from [14C]valine [1]: 509 dpm
B1: low molecular weight (LMW) polypeptide component of the oxido reductase system of Penicillium chrysogenum (protein)
chain: T1 sequence

bis-ACV reductase activity: µmol NADPH oxidized per minute (340 nm) (µmol NADPH/minute) [2]: 2.25 | bis-ACV reductase activity: µmol NADPH oxidized per minute (340 nm) (µmol NADPH/minute) [3]: 1.93 | production of isopenicillin N from bis-ACV by IPNS under non-reducing conditions: antibiotic µg/ml by bioassay on Micrococcus luteus [4]: 72 µg/mL | DTNB reductase activity: increase of absorbance at 412 nm after 15 minutes (absorbance at 412 nm) [5]: 0.225 | DTNB reductase activity: increase of absorbance at 412 nm after 15 minutes (absorbance at 412 nm) [6]: 0.08
B2: high molecular weight (HMW) polypeptide component of the oxido reductase system of Penicillium chrysogenum (enzyme)
chain: VHSKVVIIGSGPGAHTAAIYLSRAELQPVLYEGMLANGTAAGGQLTTTTDVENFPGFPSGIGGAELMDNMRAQSERFGTEIITETISKLDLSSRPFKMWTEWNDDEGSEPVRTADAVIIATGANARRLNLPGEETYWQNGISACAVCDGAVPIFRNKPLYVIGGGDSAAEEAMFLAKYGSSVTVLVRKDKLRASNIMADRLLAHPKCKVRFNTVATEVIGENKPNGLMTHLRVKDVLSNAEEVVEANGLFYAVGHDPASGLVKGQVELDDEGYIITKPGTSFTNVEGVFACGDVQDKRYRQAITSAGSGCVAALEAEKFIAETETHQEAKPVL

KM for reduction of the protein disulphide in insulin (insulin): 2300 µM
B3: oxido reductase enzyme system of Penicillium chrysogenum (HMW and LMW components together, with NADPH) (enzyme)
chain 1: B2 chain
chain 2: T1 sequence
